Laboratory results: US20150141489
Positions count from the first letter of the chain named.

B1: T7-tagged human Mnk2a (protein)
chain: MVQKKPAELQGFHRSFKGQNPFELAFSLDQPDHGDSDFGLQCSARPDMPASQPIDIPDAKKRGKKKKRGRATDSFSGRFEDVYQLQEDVLGEGAHARVQTCINLITSQEYAVKIIEKQPGHIRSRVFREVEMLYQCQGHRNVLELIEFFEEEDRFYLVFEKMRGGSILSHIHKRRHFNELEASVVVQDVASALDFLHNKGIAHRDLKPENILCEHPNQVSPVKICDFDLGSGIKLNGDCSPISTPELLTPCGSAEYMAPEVVEAFSEEASIYDKRCDLWSLGVILYILLSGYPPFVGRCGSDCGWDRGEACPACQNMLFESIQEGKYEFPDKDWAHISCAAKDLISKLLVRDAKQRLSAAQVLQHPWVQGCAPENTLPTPMVLQRNSCAKDLTSFAAEAIAMNRQLAQHDEDLAEEEAAGQGQPVLVRATSRCLQLSPPSQSKLAQRRQRASLSSAPVVLVGDHA
B2: Mnk2a-kinase dead (Mnk2aKD) (protein)
chain: B1 chain with K113A

Target: endogenous p38α, Q16539
Sequence (Q16539 2-360): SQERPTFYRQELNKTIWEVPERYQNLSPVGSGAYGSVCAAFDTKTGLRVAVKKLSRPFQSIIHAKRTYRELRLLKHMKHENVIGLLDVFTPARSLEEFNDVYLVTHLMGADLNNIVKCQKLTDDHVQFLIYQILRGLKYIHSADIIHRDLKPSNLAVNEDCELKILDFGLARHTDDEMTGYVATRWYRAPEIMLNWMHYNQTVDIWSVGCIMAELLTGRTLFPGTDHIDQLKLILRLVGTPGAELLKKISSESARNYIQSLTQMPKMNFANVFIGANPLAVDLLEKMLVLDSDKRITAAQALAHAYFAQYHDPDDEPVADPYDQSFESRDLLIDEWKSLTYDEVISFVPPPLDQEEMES

Row | Protein | p38-MAPK phosphorylation (Western blot) | p38 or MK2 phosphorylation (Western blot)
1 | B1 | only cells expressing Mnk2a showed increased p38-MAPK phosphorylation, indicating that p38-MAPK is activated | –
2 | B2 | – | it did not cause activation of p38, as measured by p38 or MK2 phosphorylation
